Measurements as given in publication PMC7617869 (Nature Structural & Molecular Biology, 2025).

Tests used:
Conditions in all cases: both partners purified
[1] = molecular target: T1, His-tagged BRISC (wild type) (human, UniProt P46736 1-316; Q15018 1-415; Q9NXR7 1-383; Q9NWV8 1-329); test: other fluorescence titration; spectral shift (Dianthus); labelled His–BRISC first incubated with 100 μM FX-171-C (1% DMSO) 15 min, then with SHMT2(A285T) 30 min at 25 °C
[2] = molecular target: T1, His-tagged BRISC (wild type); test: other fluorescence titration; spectral shift (Dianthus); 12.5 nM RED-Tris-NTA-labelled His–BRISC, SHMT2(A285T) 46 μM to 1.4 nM; 25 mM HEPES pH 7.5, 150 mM NaCl, 1 mM DTT, 0.005% Tween-20; 25 °C; no compound
[3] = molecular target: T1, His-tagged BRISC (wild type); test: other fluorescence titration; spectral shift (Dianthus); labelled His–BRISC first incubated with 100 μM JMS-175-2 (1% DMSO) 15 min, then with SHMT2(A285T) 30 min at 25 °C

KD after incubation of BRISC with FX-171-C [1]: 3600 ± 1800 nM | Kd [2]: 400 ± 100 nM | KD after incubation of BRISC with JMS-175-2 [3]: 700 ± 300 nM
B1: SHMT2ΔN(A285T) (residues 18–504) (enzyme)
chain: QLVRMAIRAQHSNAAQTQTGEANRGWTGQESLSDSDPEMWELLQREKDRQCRGLELIASENFCSRAALEALGSCLNNKYSEGYPGKRYYGGAEVVDEIELLCQRRALEAFDLDPAQWGVNVQPYSGSPANLAVYTALLQPHDRIMGLDLPDGGHLTHGYMSDVKRISATSIFFESMPYKLNPKTGLIDYNQLALTARLFRPRLIIAGTSAYARLIDYARMREVCDEVKAHLLADMAHISGLVAAKVIPSPFKHADIVTTTTHKTLRGTRSGLIFYRKGVKAVDPKTGREIPYTFEDRINFAVFPSLQGGPHNHAIAAVAVALKQACTPMFREYSLQVLKNARAMADALLERGYSLVSGGTDNHLVLVDLRPKGLDGARAERVLELVSITANKNTCPGDRSAITPGGLRLGAPALTSRQFREDDFRRVVDFIDEGVNIGLEVKSKTAKLQDFKSFLLKDSETSQRLANLRQRVEQFARAFPMPGFDEH
notes: serine hydroxymethyltransferase 2 (SHMT2), residues 18-504; also called SHMT2(A285T); serine hydroxymethyltransferase 2
